The results in this text go back to article PMC4120998 (Journal of the American Chemical Society, 2014).

In this assay the target is CXCR4 on human Jurkat cells (Homo sapiens (endogenous, Jurkat cells), UniProt P61073). Description: flow cytometry on cells.
CXCR4 on human Jurkat cells, sequence (P61073 whole entry): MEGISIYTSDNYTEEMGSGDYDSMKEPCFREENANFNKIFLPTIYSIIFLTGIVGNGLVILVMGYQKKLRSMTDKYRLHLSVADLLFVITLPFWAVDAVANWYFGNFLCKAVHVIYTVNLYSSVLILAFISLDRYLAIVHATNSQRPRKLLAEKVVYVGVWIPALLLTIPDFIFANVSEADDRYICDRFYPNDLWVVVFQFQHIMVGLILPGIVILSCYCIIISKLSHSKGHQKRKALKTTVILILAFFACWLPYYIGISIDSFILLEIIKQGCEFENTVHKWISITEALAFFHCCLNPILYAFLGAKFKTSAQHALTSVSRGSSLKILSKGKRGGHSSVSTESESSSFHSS

B1: bovine antibody BLV1H12 (antibody)
VH: QVQLRESGPSLVKPSQTLSLTCTASGFSLSDKAVGWVRQAPGKALEWLGSIDTGGNTGYNPGLKSRLSITKDNSKSQVSLSVSSVTTEDSATYYCTSVHQETKKYQSCPDGYRERSDCSNRPACGTSDCCRVSVFGNCLTTLPVSYSYTYNYEWHVDVWGQGLLVTVSS
VL: QAVLNQPSSVSGSLGQRVSITCSGSSSNVGNGYVSWYQLIPGSAPRTLIYGDTSRASGVPDRFSGSRSGNTATLTISSLQAEDEADYFCASAEDSSSNAVFGSGTTLTVL
As for B1, the binding result was “no binding (tested: 1 μg/mL)”.
